In patent CN116693678A:

Assays:
[1] = target: 肺炎支原体天然抗原(购自Microbix) (Mycoplasma pneumoniae); assay: indirect ELISA on coated antigen (2 ug/ml), antibody 0 ng/ml (blank well)
[2] = target: 肺炎支原体天然抗原(购自Microbix) (Mycoplasma pneumoniae); assay: indirect ELISA on coated antigen (2 ug/ml), antibody 0.15 ng/ml
[3] = target: 肺炎支原体天然抗原(购自Microbix) (Mycoplasma pneumoniae); assay: indirect ELISA on coated antigen (2 ug/ml), antibody 4.12 ng/ml
[4] = target: 肺炎支原体天然抗原(购自Microbix) (Mycoplasma pneumoniae); assay: indirect ELISA on coated antigen (2 ug/ml), antibody 12.35 ng/ml
[5] = target: 肺炎支原体天然抗原(购自Microbix) (Mycoplasma pneumoniae); assay: indirect ELISA on coated antigen (2 ug/ml), antibody 0.46 ng/ml
[6] = target: 肺炎支原体天然抗原(购自Microbix) (Mycoplasma pneumoniae); assay: indirect ELISA on coated antigen (2 ug/ml), antibody 1.37 ng/ml

OD值 (450nm, 参考630nm) [1]	OD值 (450nm, 参考630nm) [2]	OD值 (450nm, 参考630nm) [3]	OD值 (450nm, 参考630nm) [4]	OD值 (450nm, 参考630nm) [5]	OD值 (450nm, 参考630nm) [6]	Molecule
0.015 OD	0.068 OD	0.499 OD	1.21 OD	0.111 OD	0.208 OD	对照 (antibody)
0.038 OD	0.156 OD	0.815 OD	1.89 OD	0.201 OD	0.295 OD	Anti-MP-11F5mut1 (antibody, mouse IgG1, kappa, V domains shown) VH: QVQLQQSGPELVKPGALVKISCKASGYTFTSFDINWVKQRPGQGLEWIGYIYPGDGSTKYNEKFKGKATLTADKSSSTAYMQFSSLTSENSAVYFCTRKGGWGAGHSAMDYWGQGTSVTVSS VL: DIQMTQTTSSLSASLGDRVTISCRASQAIGNYLNWYQQRPDGTVKLLIYYTSRKNSGAPSRFSGSGSGTDYSITISNLDQEDIATYFCQQGYTTPYTFGGGTKLEIKR
0.042 OD	0.374 OD	1.92 OD	1.96 OD	0.49 OD	1.26 OD	Anti-MP-11F5mut4 (antibody, mouse IgG1, kappa, V domains shown) VH: QVQLQQSGPELVKPGALVKISCKASGYTFTSFDINWVKQRPGQGLEWIGYIYPGDGSTKYNEKFKGKATLTADKSSSTAYMQFSSLTSENSAVYFCTRKGGWGAGHSAMDYWGQGTSVTVSS VL: DIQMTQTTSSLSASLGDRVTISCRASQAISNYINWYQQRPDGTVKLLIYYTSRKNSGAPSRFSGSGSGTDYSLTISNLDQEDIATYFCQQGYTTPYTFGGGTKLEIKR
0.034 OD	0.489 OD	1.64 OD	1.93 OD	0.56 OD	1.27 OD	Anti-MP-11F5mut8 (antibody, mouse IgG1, kappa, V domains shown) VH: QVQLQQSGPELVKPGALVKISCKASGYTFTSFDINWVKQRPGQGLEWIGYIYPGDGSTKYNEKFKGKATLTADKSSSTAYMQFSSLTSEDSAVYFCTRKGGWGAGHSAMDYWGQGTSVTVSS VL: DIQMTQTTSSLSASLGDRVTISCRASQAISNYINWYQQRPDGTVKLLIYYTSRKNSGAPSRFSGSGSGTDYSLTISNIDQEDIATYFCQQGYTTPYTFGGGTKLEIKR
0.038 OD	0.163 OD	0.837 OD	2.02 OD	0.241 OD	0.316 OD	Anti-MP-11F5mut5 (antibody, mouse IgG1, kappa, V domains shown) VH: QVQLQQSGPELVKPGALVKISCKASGYTFTSFDINWVKQRPGQGLEWIGYIYPGDGSTKYNEKFKGKATLTADKSSSTAYMQFSSLTSENSAVYFCTRKGGWGAGHSAMDYWGQGTSVTVSS VL: DIQMTQTTSSLSASLGDRVTISCRASQAISNYLNWYQQRPDGTVKLLIYYTSRKNSGAPSRFSGSGSGTDYSLTISNIDQEDIATYFCQQGYTTPYTFGGGTKLEIKR
0.063 OD	0.174 OD	0.85 OD	1.92 OD	0.276 OD	0.445 OD	Anti-MP-11F5mut6 (antibody, mouse IgG1, kappa, V domains shown) VH: QVQLQQSGPELVKPGALVKISCKASGYTFTSFDINWVKQRPGQGLEWIGYIYPGDGSTKYNEKFKGKATLTADKSSSTAYMQFSSLTSEDSAVYFCTRKGGWGAGHSAMDYWGQGTSVTVSS VL: DIQMTQTTSSLSASLGDRVTISCRASQAISNYINWYQQRPDGTVKLLIYYTSRKNSGAPSRFSGSGSGTDYSLTISNLDQEDIATYFCQQGYTTPYTFGGGTKLEIKR
0.032 OD	0.365 OD	1.51 OD	1.91 OD	0.4 OD	0.643 OD	Anti-MP-11F5mut7 (antibody, mouse IgG1, kappa, V domains shown) VH: QVQLQQSGPELVKPGALVKISCKASGYTFTSFDINWVKQRPGQGLEWIGYIYPGDGSTKYNEKFKGKATLTADKSSSTAYMQFSSLTSENSAVYFCTRKGGWGAGHSAMDYWGQGTSVTVSS VL: DIQMTQTTSSLSASLGDRVTISCRASQAISNYINWYQQRPDGTVKLLIYYTSRKNSGAPSRFSGSGSGTDYSLTISNIDQEDIATYFCQQGYTTPYTFGGGTKLEIKR
